Source: article PMC2831303

Experiments:
[1] = biological target: NorRΔGAF (GAF domain deleted form of E. coli NorR) (E. coli)
[2] = biological target: NorRΔGAF (GAF domain deleted form of E. coli NorR) (E. coli); assay: SEC
[3] = biological target: NorRΔGAF (GAF domain deleted form of E. coli NorR) (E. coli); assay: negative-stain electron microscopy
NorRΔGAF [4] = biological target: T1, NorRΔGAF (Escherichia coli, UniProt P37013 178-504); assay: EMSA
T1 sequence: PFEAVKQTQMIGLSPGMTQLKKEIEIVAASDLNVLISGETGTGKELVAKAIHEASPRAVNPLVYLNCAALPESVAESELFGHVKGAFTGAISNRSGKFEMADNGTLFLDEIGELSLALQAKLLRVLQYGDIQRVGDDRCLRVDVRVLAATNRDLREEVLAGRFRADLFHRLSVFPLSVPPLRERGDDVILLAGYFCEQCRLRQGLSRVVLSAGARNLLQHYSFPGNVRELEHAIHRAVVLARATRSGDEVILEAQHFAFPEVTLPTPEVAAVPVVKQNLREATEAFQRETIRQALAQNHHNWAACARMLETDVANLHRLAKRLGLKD

NorRΔGAF [5] = biological target: T1, NorRΔGAF; assay: gel filtration

“NorRΔGAF (GAF domain deleted form of E. coli NorR) (domain or fragment)” showed an ATPase activity against NorRΔGAF concentration with 21 bp NorR1 DNA (1:1): Keff [1] of 8.4 µM, a stoichiometry N [2] of 2 and a stoichiometry N [3] of 6.

B1: NorR123 66 bp (dsDNA)
DNA 1: TCACTGTCAATTTGACTATAGATATTGTCATATCGACCATTTGATTGATAGTCATTTTGACTACTC
DNA 2: GAGTAGTCAAAATGACTATCAATCAAATGGTCGATATGACAATATCTATAGTCAAATTGACAGTGA
B1 gave a Kd (NorRΔGAF [4]) of 174 nM.

B2: NorR1 21 bp (dsDNA)
DNA 1: GATAGTCATTTTGACTACTCA
DNA 2: TGAGTAGTCAAAATGACTATC
B2: binds (NorRΔGAF [5]).
